# In the DeepSol protein solubility set:
# Assay: soluble on expression in E. coli; label from the status in PepcDB or PDB records
row,Sequence,soluble on expression in E. coli
1,MTADALVRAPAEPTHPIREWTTVFVGTGDEHLVVAEGPKHRDWRKIGNVFREPARTAVLGLIRTCIADRELKIETFEGKVADALGPVAAAHPILTPDKSVVVAVQIWSGDPKKNPPDRPNVGAWEWVLSSEDNPPPPQLQLDPGAIELIGMSTRHQDRSVFGPADLYTRSARLSDTLRHVRQIRDCQVKDRFDGTFTIRAEADVTRELRYAERCVEGPAGRRVRGICWDAGTDEALVHESMLDAWLSTMLASTSGMYIAVGDLSYQYPYWLKWVTEHVPGLGHGVSTGQTFALHEEDWPKIIEWVQQVRKGPVSGTVRARRGGGGWLKAEFRGFLLDPLVSDSIGVAVISPEIETIPDETS,not soluble
2,SKVWKYFGFDTNAEGCILQWKKIYCRICMAQIAYSGNTSNLSYHLEKNHPEEFCEFVKSN,soluble
3,NGFQKEMRTRILGMVPHATISAAQPLDDWQTVANAALRHREVVGAAPFAELQGMLSYKGNMLPVLVNGIDPQEERKVSIVGEHIVQGSLDDLKPGEFGIVLGEITARRFHVNVGDKLTLIVPEATSAPGGITPRMQRFTIVALFKVGAELDNSLALIDIADAGQLLRLQPGQVPSVRLELKDLYQSPQVAAKVVKELGQGFRSSDWTRTQGSLFNAMKMEKT,not soluble
4,GELMPPQLQNGLNLSAKVVQGSLDSLPQAVREFLENNAELCQPDHIHICDGSEEENGRLLGQMEEEGILRRLKKYDNCWLALTDPRDVARIESKTVIVTQEQRDTVPIPKTGLSQLGRWMSEEDFEKAFNARFPGCMKGRTMYVIPFSMGPLGSPLSKIGIELTDSPYVVASMRIMTRMGTPVLEALGDGEFVKCLHSVGCPLPLQKPLVNNWPCNPELTLIAHLPDRREIISFGSGYGGNSLLGKKCFALRMASRLAKEEGWLAEHMLVLGITNPEGEKKYLAAAFPSACGKTNLAMMNPSLPGWKVECVGDDIAWMKFDAQGHLRAINPENGFFGVAPGTSVKTNPNAIKTIQKNTIFTNVAETSDGGVYWEGIDEPLASGVTITSWKNKEWSSEDGEPCAHPNSRFCTPASQCPIIDAAWESPEGVPIEGIIFGGRRPAGVPLVYEALSWQHGVFVGAAMRSEATAAAEHKGKIIMHDPFAMRPFFGYNFGKYLAHWLSMAQHPAAKLPKIFHVNWFRKDKEGKFLWPGFGENSRVLEWMFNRIDGKASTKLTPIGYIPKEDALNLKGLGHINMMELFSISKEFWDKEVEDIEKYLVDQVNADLPCEIEREILALKQRISQM,soluble
5,MSIPFTRWPEEFARRYREKGYWQDLPLTDILTRHAASDSIAVIDGERQLSYRELNQAADNLACSLRRQGIKPGETALVQLGNVAELYITFFALLKLGVAPVLALFSHQRSELNAYASQIEPALLIADRQHALFSGDDFLNTFVTEHSSIRVVQLLNDSGEHNLQDAINHPAEDFTATPSPADEVAYFQLSGGTTGTPKLIPRTHNDYYYSVRRSVEICQFTQQTRYLCAIPAAHNYAMSSPGSLGVFLAGGTVVLAADPSATLCFPLIEKHQVNVTALVPPAVSLWLQALIEGESRAQLASLKLLQVGGARLSATLAARIPAEIGCQLQQVFGMAEGLVNYTRLDDSAEKIIHTQGYPMCPDDEVWVADAEGNPLPQGEVGRLMTRGPYTFRGYYKSPQHNASAFDANGFYCSGDLISIDPEGYITVQGREKDQINRGGEKIAAEEIENLLLRHPAVIYAALVSMEDELMGEKSCAYLVVKEPLRAVQVRRFLREQGIAEFKLPDRVECVDSLPLTAVGKVDKKQLRQWLASRASA,soluble
6,MGSDKIHHHHHHMKYVLIQATDNGILRRAECGGAVTALFKYLLDKKLVDGVLALKRGEDVYDGIPTFITNSNELVETAGSLHCAPTNFGKLIAKYLADKKIAVPAKPCDAMAIRELAKLNQINLDNVYMIGLNCGGTISPITAMKMIELFYEVNPLDVVKEEIDKGKFIIELKNGEHKAVKIEELEEKGFGRRKNCQRCEIMIPRMADLACGNWGAEKGWTFVEICSERGRKLVEDAEKDGYIKIKQPSEKAIQVREKIESIMIKLAKKFQKKHLEEEYPSLEKWKKYWNRCIKCYGCRDNCPLCFCVECSLEKDYIEEKGKIPPNPLIFQGIRLSHISQSCINCGQCEDACPMDIPLAYIFHRMQLKIRDTLGYIPGVDNSLPPLFNIER,not soluble
7,MEQLSIQTDELQDQFSNCSPASVDSSYSSCSSVEDEIEIYTRLVRNEEPLRRDFFREMSKNSSCSSSFDYGEFGPSSSSRKGSKTTDADLDSLFHSLVETSDQVNTVPKPTKTEVESIPEEFEQKPSSSSHRLPSEMNASITHIKSELDPTMQAFQMPHNDLFLATAAPHYNPFALSNDFMPNPLMPSFTSPFYPQHFPVSDSRRGSQGTTSSSNNTGGTPSPHSSSLPTSPPQLQGFLRSFLNPDNLSTPTSFGVPSETALDADKMCAVCNDRAVCLHYGARTCEGCKGFFKRTVQKNSKYTCAGNKTCPIDKRYRSRCQYCRYQKCLEVGMVKEIVRHGSLSGRRGRLSSKTKLARSEDQPSPPLPLLALMGKAIEDHTNMTVVRQFMQPFDETIALRILHGELHATKKLLMAMPQISEIQPADFQILLSRSFFAIMAIRVANRCGNSTDTIMFESGELFSLNAFPACFQQIIRFMVDKARTFSSLVDWEPQAFAAFIALQFLAGNTEHNVLGLTNKPLVDQVQSTIINALKDHCSGSQNKLAKIVRLTQEFDVFHALGLQALDILYPSHQLPEEFMFLINLTRAPLRSTDAPPACGSPVAPSGSSLFNFQMGPAAF,not soluble
8,MGSDKIHHHHHHAETVVVRLGLFTESISLTELQNAAKTGELPRSLQSYAKGLSEQQRRFLLGALGMNIPMNVVTINKLLNTQIGTTILNDFATALARKDNAGVQALRGGLVLGSTAPGGLSILSFIAAYPSKRLEIDLPKAFIVAGNLNTAFWRTQQFMVAIAPRLDSTTSQIAFPFDPSQPGTAQVKILNLSLNDQKRQRKIPVDIYWSNDATANKPLIVFSHGLGSVRTDLRYLAEHLASHGYVVAALEHPGSNEDNINSALQGKTRPVKPQEFLNRPQDVSFVLDELEKLNQTTNHPLQGKLATMNAMVVGYSFGGSTALALAGGELQLERLKQRCKKNLAILSLGEAMQCIAQELPENTYQLRDTRIKQAIALNPTTSLIFGETGLTKVQVPTLVLAGSADKTTPALTEQIVGFDKIPSPKWLVGIVGGTHLSVKDPSKTMDQIGQPNTPISGGEVVGEQAADIRKYLKAITLAFAAQMTPEAKNYAIFLTSDYAQFASTKAFPFRLITQIPSNAMPVVKEFGDK,not soluble
9,MGSDKIHHHHHHMSLFDHKITELKQLIHKKEIKISDLVDESYKRIQAVDDKVQAFLALDEERARAYAKELDEAVDGRSEHGLLFGMPIGVKDNIVTKGLRTTCSSKILENFDPIYDATVVQRLQDAEAVTIGKLNMDEFAMGSSTENSAYKLTKNPWNLDTVPGGSSGGSAAAVAAGEVPFSLGSDTGGSIRQPASFCGVVGLKPTYGRVSRYGLVAFASSLDQIGPITRTVEDNAFLLQAISGVDKMDSTSANVDVPDFLSSLTGDIKGLKIAVPKEYLGEGVGKEARESVLAALKVLEGLGATWEEVSLPHSKYALATYYLLSSSEASANLARFDGIRYGYRTDNADNLIDLYKQTRAEGFGNEVKRRIMLGTFALSSGYYDAYYKKAQKVRTLIKKDFEDVFEKYDVIVGPTTPTPAFKIGENTKDPLTMYANDILTIPVNLAGVPGISVPCGLADGLPLGLQIIGKHFDESTVYRVAHAFEQATDHHKAKPEL,not soluble
10,MLVRRLFQPSTLHWAWRTTALNHPLGRHQGGLRWTHSGGRSYRAVIFDTGGVLVPSPGTVAVGWEVQNHVPSGTIVKAFIRGGDSGPWIRFIKGEITTEHFLEEFGRLCSEIAKTSVPVSSYFSLLTSEQVTKQFPVMTQAISQIRAKGLQTAVLTNNFHLSSGESFLPLDRKQFDVVVESCLEGICKPDPRIFQLCLQRLSLQPSEAIFLDDLGSNLKVAASLGIHTIKVDRPETAVKELEALLGFPLHLGVPNTRPVRKTMAIPQDALEKYLKGLLGTHSTGPMELLQFDHGQSNPTYYIRLADRQLVLRKKPSGTLLPSAHAIEREFRIMKALANAGVPVPTVLDLCEDSSIIGTPFYLMEYCPGIIYKDPSLPGLEPSRREAIYTAMNQVLCRIHSVDLQATSLDSFGKQGDYIPRQVQTWTKQYRAAETSSIPAMERLIQWLPLHLPRQQRTTLVHGDFRLDNLIFHPEKAEVLAVLDWELSTLGDPFADVAYSCLAYYLPSSFPILRGFRDQDVTKLGIPTVEEYFRMYCLNMGIPPIDNWNFYMAFSFFRVAAILQGVYKRSLTGQASSATAQQSGKLTESMAELAWDFATKEGFRVFKEMPATKTLSRSYHAWAGPRSPRTPKGVRGHSTVAAASPSHEAKGGLVISPEGLSPAVRKLYEQLVQFIEQKVYPLEPELQRHQASADRWSPSPLIEDLKEKAKAEGLWNLFLPLETDPEKKYGAGLTNVEYAHLCEVMGMSLYASEIFNCSAPDTGNMEILVRYGTEEQKARWLVPLLEGRIRSCFAMTEPQVASSDASNIEASIKEEDGCYVINGHKWWTSGILDPRCKLCVFMGKTDPQAPRHQQQSMLLVPMDSPGITVIRPLSVFGLEDPPGGHGEVRFKDVRVPKENILLGPGRGFEIAQGRLGPGRIHHCMRLIGYSERALALMKTRVMSRTAFGKPLVEQGTILADIARSRVEIEQARLLVLKAAHLMDVAGNKTAALDIAMIKMVVPSMAYHVIDRAIQAFGAAGLSSDYPLAQFFGWARALRFADGPDEVHQLTVAKMELKNQSRMQEPAVPRV,soluble
11,MAHHHHHHMGSCCAKSDTSVDIDDSGRGVERDTEDDNNVYILQYQSRGEVLKMLELEPTPHEASVMTQSPSLPTDGPAAEECAEAELSDPLSCSSTTIVTVRSERRAADRFSANSLTWTLPEVSATTVSTRFDHARTTSFMGSDDDFSSVEWSANSRKDRRLMLLRDRDRAAQRDMVMNEMDQRRFIAEHANRAHRAILVTYIRNRLEIERRVSYEEFLVERNAFLLHELEAREPLVRRTVELQAHSELLNKMQQQRLLRNRGK,soluble
12,MRYRDFDIFKFWFRAVEKFAPWVHKIYLITDNQVPDWLDTRNSKLTVIDHRDIMDADWLPTFNSNAIELNAYKIKNLSEKFVLFNDDTILNSYVDKVDFFDENYPKDIYVESPIMATKGSVDHIMVNNVEIINEFFEKKNFYKKNLTKVFNPKIGIKLLRTLALLPSSKFAGFWNSHLPISYNKTTFETVWSNCEGKLVATSKNKFRTAYDVSHWLMRYWQLASGNYHLQNNIGKVYDLSSQNIDEVVTQLQRSHSKIICLNDNDELDDYEGVKGKLVTTLNEKFSEKSKFELLEHHHHHH,not soluble
13,MDRKGFLKSTMIATGSLLLGGAGICRFLNDKEPADGPFPRTIEKIHCGNMKKVLVIMSAGTKLGNTDRLTDAYIKGLVERGHSVTKVYLGSMRIEGCRGCGVCQRLAHQCAVRDGMQDIYPLFAECDTVVMASPLYFWTITSQLKAFIDRLYAISADDKYPQKDTVLLMTAGDDNENTFDQPKQYFRLLSQALGWNEVGIYCAGGCTGCEKLARQIDKVHLENVYKMGLEL,not soluble
14,MAHHHHHHMTAAADFALPDLVLFLRLYDSANVEDGQLLVQVMNEIHRQLFALAETAADAAVARGGSSTPSMAGTTIGEHDLDAANRGVKGISPAPSASPLPLPAMLYTMSSLGIVEEAVLDVVTSSAVQDGARGRRGLLYSQLRLYSVADLLQLLVALHRFGHQQQPSTKAVTMALRASLYRTSTTASRFHRRARSLKRALAARPQTPSSGEGRADAAAADADTGGVAAVIAADEELSSLAFGLGCPLFLLLEALTATATTVHRRTDVVAFLSDLIAVTAVAELTTAVHESRGRRSPAGCEDLAREAQEFVFAVSHQLLRAAKLTECMELPQILLSDVFAWSTTLSGRGVFVDGGEDNAVPSDRVAYYDHVTADLIKANSAE,not soluble
